Key:
ERα wild type (in cell) = molecular target: T1, ERα wild type (in cell) (Homo sapiens, UniProt P03372 SEQ:1-595); experiment: cell_activity; HepG2, 10 nM MOX, 2.5 ng plasmid; conditions: chain copies: 2 inferred
T1 chain: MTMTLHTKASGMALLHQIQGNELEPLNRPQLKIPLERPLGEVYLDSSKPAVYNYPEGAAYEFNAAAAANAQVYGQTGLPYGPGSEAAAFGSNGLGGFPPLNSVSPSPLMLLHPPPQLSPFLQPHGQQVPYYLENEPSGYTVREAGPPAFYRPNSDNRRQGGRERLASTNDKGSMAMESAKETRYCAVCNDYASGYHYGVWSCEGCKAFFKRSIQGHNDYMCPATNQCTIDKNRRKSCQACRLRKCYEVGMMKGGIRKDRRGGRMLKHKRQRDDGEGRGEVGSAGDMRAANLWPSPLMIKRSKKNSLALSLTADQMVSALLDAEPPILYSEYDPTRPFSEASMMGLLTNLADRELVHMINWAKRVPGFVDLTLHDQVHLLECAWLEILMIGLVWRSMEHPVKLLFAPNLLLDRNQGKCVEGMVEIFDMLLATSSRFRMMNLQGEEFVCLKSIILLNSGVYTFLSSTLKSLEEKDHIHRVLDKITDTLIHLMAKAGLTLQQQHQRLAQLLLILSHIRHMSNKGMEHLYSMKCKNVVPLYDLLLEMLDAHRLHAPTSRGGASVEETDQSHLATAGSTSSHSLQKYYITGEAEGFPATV
Experimental: Fresh medium and (if any) hormones were added. For MCF-7 and 231 cells, transient transfection was carried out using the Tfx™-20 reagent (Promega; Madison, Wis.) according to the manufacturer's direction with minor changes. Briefly, 1×10⁵ cells were plated in each well of 12-well microplates one day before transfection. A 1:3 ratio of DNA to lipid was used. The DMEM/F12 medium without serum was used as carrier for the DNA-lipid mixture. After 1 hour incubation with the DNA-lipid-DMEM/F12 at 37° C., the cells were transferred to fresh DMEM/F12 supplemented with 10% CD-FBS, 50,000 U/I of penicillin, 50 mg/l streptomycin and hormones. […] The cells subjected to either transfection method were harvested 48 hours post-transfection. Reporter assays were performed by lysing the cells in situ with 250 μl of passive lysis buffer (Promega).

ER4.3 = ER4.3 (Homo sapiens, UniProt P03372 SEQ:1-595, E203W,Q214V,G215R,H216P,N217T); experiment: EMSA; conditions: chain copies: 2 stated; label: labeled
Experimental: (§1) To compare binding of wild type hERα and the ER mutants to the EREs, protein titrations were performed. Increasing amounts of extracts containing equivalent levels of wild-type ER or ER mutants were incubated with the cERE. The ER:ERE complexes were then analyzed by EMSA.
(§2) To test this idea, synthetic probe (SEQ NO: 63) comprising a perfect palindrome with both half sites representing the imperfect ERE half site in the pS2 gene was prepared (FIG. 1A(ii), pS2 PAL).

ER3.1 = ER3.1 (Homo sapiens, UniProt P03372 SEQ:1-595, E203W,Q214N,G215R,D218S); experiment: EMSA; conditions: chain copies: 2 stated; label: labeled
Experimental: as §1, §2

ER4 = ER4 (Homo sapiens, UniProt P03372 SEQ:1-595, E203W,Q214A,G215R,H216G); experiment: EMSA; conditions: chain copies: 2 stated; label: labeled
Experimental: as §1, §2

ER2 = ER2 (Homo sapiens, UniProt P03372 SEQ:1-595, E203W,Q214A,G215R); experiment: EMSA; conditions: chain copies: 2 stated; label: labeled
Experimental: as §1, §2

ER3M = ER3M (Homo sapiens, UniProt P03372 SEQ:1-595, E203W,Q214A,H216G); experiment: EMSA; modestly lower than the other four mutants; conditions: chain copies: 2 stated; label: labeled
ERα wild type (hERα) = molecular target: T2, ERα wild type (hERα) (Homo sapiens, UniProt P03372 SEQ:1-595); experiment: EMSA; negligible binding; conditions: tags: CHO-S whole cell extract; chain copies: 2 stated; label: labeled
T2 chain: T1 chain
Experimental: as §1, §2

ER3M (in cell) = ER3M (in cell) (Homo sapiens, UniProt P03372 SEQ:1-595, E203W,Q214A,H216G); experiment: cell_activity; HepG2, 10 nM OHT; conditions: chain copies: 2 inferred
ER4.3 (in cell) = ER4.3 (in cell) (Homo sapiens, UniProt P03372 SEQ:1-595, E203W,Q214V,G215R,H216P,N217T); experiment: cell_activity; HepG2, 10 nM OHT; conditions: chain copies: 2 inferred

B1: ATL2/cERE (dsDNA)
DNA 1: AAGCTTAGGTCACTGTGACCTATCAAGATATCGAGATAGGTCACTGTGACCTATCGACTCTAGA
DNA 2: TCTAGAGTCGATAGGTCACAGTGACCTATCTCGATATCTTGATAGGTCACAGTGACCTAAGCTT
- activity (ERα wild type (in cell)): 41 fold induction

B2: pS2 PAL probe (dsDNA)
DNA 1: AGCTTCTCTATTGGGCCACTGTGGCCCTCATCTGAAGCT
DNA 2: AGCTTCAGATGAGGGCCACAGTGGCCCAATAGAGAAGCT
- binding signal (ER4.3): > 30 fold higher affinity than WT
- binding signal (ER3.1): > 30 fold higher affinity than WT
- binding signal (ER4): > 30 fold higher affinity than WT
- binding signal (ER2): > 30 fold higher affinity than WT
- binding signal (ER3M): > 30 fold higher affinity than WT
- binding signal (ERα wild type (hERα)): > 100 fold weaker than cERE

B3: ATL4/PAL (dsDNA)
DNA 1: AAGCTTGGGCCACTGTGGCCCATCAAGATATCGAGATGGGCCACTGTGGCCCATCGACAGGAATTCACGGGCCACTGTGGCCCATCAAGATATCGAGATGGGCCACTGTGGCCCATCGACTCTAGA
DNA 2: TCTAGAGTCGATGGGCCACAGTGGCCCATCTCGATATCTTGATGGGCCACAGTGGCCCGTGAATTCCTGTCGATGGGCCACAGTGGCCCATCTCGATATCTTGATGGGCCACAGTGGCCCAAGCTT
- activity (ER3M (in cell)): > 80 fold induction
- activity (ER4.3 (in cell)): > 80 fold induction
